Reference: patent US20210171593A1
Blank lines part the entries; values can stand above or below the molecule they belong to.

Key:
[1] = target: CD47 on the surface of tumor cells (Raji cells, Jurkat cells, A549 cells) (human) (UniProt Q08722); experiment: flow cytometry on Jurkat cells
[2] = target: CD47 on the surface of tumor cells (Raji cells, Jurkat cells, A549 cells) (human) (UniProt Q08722); experiment: flow cytometry on Raji cells
[3] = target: CD47 on the surface of tumor cells (Raji cells, Jurkat cells, A549 cells) (human) (UniProt Q08722); experiment: flow cytometry on A549 cells
[4] = target: Biotin-Fc-CD47 (Homo sapiens (Human)) (UniProt Q08722); experiment: competition ELISA: blocks Biotin-Fc-CD47 binding to coated SIRPα-His
[5] = target: CD47-FITC (Homo sapiens (Human)) (UniProt Q08722); experiment: flow cytometry of the wild domain control with the same gate as the library panel above it (CD47-FITC in the text, x axis printed APC-A), first panel, under the 3% panel
[6] = target: CD47-FITC (Homo sapiens (Human)) (UniProt Q08722); experiment: flow cytometry of the wild domain control with the same gate as the library panel above it (CD47-FITC in the text, x axis printed APC-A), second panel, under the 4.9% panel
[7] = target: CD47-FITC (Homo sapiens (Human)) (UniProt Q08722); experiment: flow cytometry of the wild domain control with the same gate as the library panel above it (CD47-FITC in the text, x axis printed APC-A), third panel, under the 12.5% panel

EC50 [1]: 0.0539 µg/mL
maximum fluorescence intensity [1]: 3000
EC50 [2]: 0.0404 µg/mL
maximum fluorescence intensity [2]: 600
EC50 [3]: 1 µg/mL
maximum fluorescence intensity [3]: 60
IC50 [4]: 494 µg/mL
Molecule: TTI-621 (Fc fusion)

percent of cells in gate P2 [5]: 1.3%
percent of cells in gate P2 [6]: 0%
percent of cells in gate P2 [7]: 0%
B1: Wild domain control (receptor, part only; not given: display vector transmembrane region, not shown: another chain or arm of the molecule; large carriers; small tags and cut ends)
chain: ELQVIQPDKSVLVAAGETATLRCTATSLIPVGPIQWFRGAGPGRELIYNQKEGHFPRVTTVSDLTKRNNMDFSIRIGNITPADAGTYYCVKFRKGSPDDVEFKSGAGTELSVRAKPS
modifications: displayed on the CHO cell surface through the pTM transmembrane region (no letters given); the pTM signal peptide is left off as cleaved
